Data from publication PMC6363454 (The Journal of Cell Biology, 2019).
Like-named read-outs stand apart in the source and are kept apart here.

B1: Dam1C/DASH heterodecamer (recombinant) (complex, S. cerevisiae)
chain 1: MSEDKAKLGTTRSATEYRLSIGSAPTSRRSSMGESSSLMKFADQEGLTSSVGEYNENTIQQLLLPKIRELSDSIITLDSNFTRLNFIHESLADLNESLGSLLYGIMSNSWCVEFSQAPHDIQDDLIAIKQLKSLEDEKNNLVMELSNMERGIKRKKDEQGENDLAKASQNKQFNQPLFPSSQVRKYRSYDNRDKRKPSKIGNNLQVENEEDYEDDTSSEASFVLNPTNIGMSKSSQGHVTKTTRLNNNTNSKLRRKSILHTIRNSIASGADLPIENDNVVNLGDLHPNNRISLGSGAARVVNGPVTKNRNSMFSGRAERKPTESRHSVAKKTEKKINTRPPFR
chain 2: MMASTSNDEEKLISTTDKYFIEQRNIVLQEINETMNSILNGLNGLNISLESSIAVGREFQSVSDLWKTLYDGLESLSDEAPIDEQPTLSQSKTK
chain 3: MDSIDEQIAIKRKELQSLQKITSLTDGLKIQLTELNEQIKEMGMNADSVAQLMNNWDSIINNISQASLGLLQYAEGDYEIGPWKDSKKKESEQSNETGLEAQENDKNDEDNDEDEDLVPLPETMVRIRVDGNE
chain 4: MEHNLSPLQQEVLDKYKQLSLDLKALDETIKELNYSQHRQQHSQQETVSPDEILQEMRDIEVKIGLVGTLLKGSVYSLILQRKQEQESLGSNSK
chain 5: MENPHEQVQANILSRIIGNVKRLNESVAILNQELVTINNRNKNLEIMGAICDNYHSSVQFNLEATNNKKPPL
chain 6: MSEQSQLDDSTIDKLIPQIFNEMRSNLNNTTNKFPKSTGGGASDNISANSNSIRSFNSITTQSLLKESESLDKITAMIKNVTAALKNNLPVYVNQVHEVCKSTNSILDSWINIHSQAGYIHKLMSDQTYLKLINDRLHNENVNTNDEDGSTLHNVIALKKKEILDLRQKLENRKGEKDAAPAKPPNQGLNPRYGVQSGRRPVPSAGISNNGRVRKTHVPASKRPSGIPRVTNRWTKPTASSSRKMFR
chain 7: MDSASKEETLEKLDQEITVNLQKIDSNLSFCFHKITQDIIPHVATYSEICERIMDSTEWLGTMFQETGLVNLQANAAAPVGNAPVKSLVSNNVGIFPTSAEEASRQSQTDNGPNEADSAVHVNRDVHSMFNNDSIDDFHTANITSTGQILKLPDSSDEDTGSEAVPSREQTDLTGEGHGGADDEQDESTIQRQSRKRKISLLLQQQYGSSSSMVPSPIVPNKMRKQLAHEEHINNDGDNDDENSNNIESSPLKQGHHHPKGQADDNNEGPDEEESTKEVPKPGTIIHFSTNR
chain 8: MTDALEQSVLALEGTVSVLKDSVESLKCANEPSTNLASTMLQTKRVFRLVPEYDVERSKLDLIEEVEPLVRTLGDKLRKSMGRMQRELDTLQQTYELNDLRLKKNISMDDDDALNSPDMGQEYEGRDADDVVMMASSTNEELEELKKLKEKKKQLENKLEILKQK
chain 9: MGESLDRCIDDINRAVDSMSTLYFKPPGIFHNAILQGASNKASIRKDITRLIKDCNHDEAYLLFKVNPEKQSVSRRDGKEGVFDYVIKRDTDMKRNRRLGRPGEKPIIHVPKEVYLNKDRLDLNNKRRRTATTSGGGLNGFIFDTDLIGSSVISNSSSGTFKALSAVFKDDPQIQRLLYALENGSVLMEEESNNQRRKTIFVEDFPTDLILKVMAEVTDLWPLTEFKQDYDQLYHNYEQLSSKLRFIKKEVLLQDDRLKTMSQYHPSSSHDVAKIIRKEKDEIRRLEMEIANLQE
chain 10: MNANKQRQYNQLAHELRELQTNLQETTKQLDIMSKQCNENLVGQLGKVHGSWLIGSYIYYMEQMLGKTQ
B2: Dam1C/DASH outer kinetochore complex in yeast cells (in vivo) (complex)
chain 1: MSEDKAKLGTTRSATEYRLSIGSAPTSRRSSMGESSSLMKFADQEGLTSSVGEYNENTIQQLLLPKIRELSDSIITLDSNFTRLNFIHESLADLNESLGSLLYGIMSNSWCVEFSQAPHDIQDDLIAIKQLKSLEDEKNNLVMELSNMERGIKRKKDEQGENDLAKASQNKQFNQPLFPSSQVRKYRSYDNRDKRKPSKIGNNLQVENEEDYEDDTSSEASFVLNPTNIGMSKSSQGHVTKTTRLNNNTNSKLRRKSILHTIRNSIASGADLPIENDNVVNLGDLHPNNRISLGSGAARVVNGPVTKNRNSMFSGRAERKPTESRHSVAKKTEKKINTRPPFR
chain 2: MMASTSNDEEKLISTTDKYFIEQRNIVLQEINETMNSILNGLNGLNISLESSIAVGREFQSVSDLWKTLYDGLESLSDEAPIDEQPTLSQSKTK
chain 3: MDSIDEQIAIKRKELQSLQKITSLTDGLKIQLTELNEQIKEMGMNADSVAQLMNNWDSIINNISQASLGLLQYAEGDYEIGPWKDSKKKESEQSNETGLEAQENDKNDEDNDEDEDLVPLPETMVRIRVDGNE
chain 4: MEHNLSPLQQEVLDKYKQLSLDLKALDETIKELNYSQHRQQHSQQETVSPDEILQEMRDIEVKIGLVGTLLKGSVYSLILQRKQEQESLGSNSK
chain 5: MENPHEQVQANILSRIIGNVKRLNESVAILNQELVTINNRNKNLEIMGAICDNYHSSVQFNLEATNNKKPPL
chain 6: MSEQSQLDDSTIDKLIPQIFNEMRSNLNNTTNKFPKSTGGGASDNISANSNSIRSFNSITTQSLLKESESLDKITAMIKNVTAALKNNLPVYVNQVHEVCKSTNSILDSWINIHSQAGYIHKLMSDQTYLKLINDRLHNENVNTNDEDGSTLHNVIALKKKEILDLRQKLENRKGEKDAAPAKPPNQGLNPRYGVQSGRRPVPSAGISNNGRVRKTHVPASKRPSGIPRVTNRWTKPTASSSRKMFR
chain 7: MDSASKEETLEKLDQEITVNLQKIDSNLSFCFHKITQDIIPHVATYSEICERIMDSTEWLGTMFQETGLVNLQANAAAPVGNAPVKSLVSNNVGIFPTSAEEASRQSQTDNGPNEADSAVHVNRDVHSMFNNDSIDDFHTANITSTGQILKLPDSSDEDTGSEAVPSREQTDLTGEGHGGADDEQDESTIQRQSRKRKISLLLQQQYGSSSSMVPSPIVPNKMRKQLAHEEHINNDGDNDDENSNNIESSPLKQGHHHPKGQADDNNEGPDEEESTKEVPKPGTIIHFSTNR
chain 8: MTDALEQSVLALEGTVSVLKDSVESLKCANEPSTNLASTMLQTKRVFRLVPEYDVERSKLDLIEEVEPLVRTLGDKLRKSMGRMQRELDTLQQTYELNDLRLKKNISMDDDDALNSPDMGQEYEGRDADDVVMMASSTNEELEELKKLKEKKKQLENKLEILKQK
chain 9: MGESLDRCIDDINRAVDSMSTLYFKPPGIFHNAILQGASNKASIRKDITRLIKDCNHDEAYLLFKVNPEKQSVSRRDGKEGVFDYVIKRDTDMKRNRRLGRPGEKPIIHVPKEVYLNKDRLDLNNKRRRTATTSGGGLNGFIFDTDLIGSSVISNSSSGTFKALSAVFKDDPQIQRLLYALENGSVLMEEESNNQRRKTIFVEDFPTDLILKVMAEVTDLWPLTEFKQDYDQLYHNYEQLSSKLRFIKKEVLLQDDRLKTMSQYHPSSSHDVAKIIRKEKDEIRRLEMEIANLQE
chain 10: MNANKQRQYNQLAHELRELQTNLQETTKQLDIMSKQCNENLVGQLGKVHGSWLIGSYIYYMEQMLGKTQ

What was measured:
cryo-EM structure [1] = target: the molecule itself; test: cryo-EM structure
cryo-EM structure [2] = target: the molecule itself; test: cryo-EM structure; remark: listed apart in the source

Protein | stoichiometry N (cryo-EM structure [1]) | stoichiometry N (cryo-EM structure [2])
B1 | 17 | –
B2 | – | 17
